Data on 18 sequences can be found in a protein production outcome set (Wang et al. 2014).

The nature of this data set: label from the status in PepcDB records.
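Note: failed if final PepcDB status was selected cloned or expressed and not failed if soluble or beyond.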

Take “MEFLFILLPVFGIFAIGFIGQKTLKFDIPNLSKLTLYLMSPFLAFNTFYTNPLTMDYFYLAIYIFVLCLSLILLVSVISFLLGYNVQDRCALILASAFMNNGNYGTPVVLLVFGAAGLDIAVVLMVLQQLAMSTIGIYFAAKGSKDANGMKTVMTRVVRMPIAYGALLGLMLQLLHIPLPSALMTCVKLVGDAAIPTIMIVLGMQLAVISFRRIELDKVGIALVLKLLIAPFIAFGLTLILPVDEMTKQIMILLAAMPTAANTTLMAVQFDTKPDLVSSTTFISTVLSIITLPIVLYFLHPVF”: the protein production entry is given as “failed”.

Turning to “MEFTTQHFIALAPMLITTITTVVVMLAIAWKRNHSQTFLLSTVGLNLALLSLLPALKVAPLAVTSLITIDKFACLYMAIILVATLACVTLAHAYLGEGAKGFPGNREELYLLLLMSALGGLVLVSANHLAGLFIGLELLSVPVYGLVAYAFFNKRSLEAGIKYMVLSAAGSAFLLFGMALLYADAGSLSFDQIGKALATTSMPSLVAQLGLGMMLVGLAFKLSLVPFHLWTPDVYEGAPAPVAAFLATASKVAVFAVVVRLFMLSPAASSGVLSTVLAVIAVASILIGNLLALTQSNLKRLLGYSSIAHFGYLVIALVASKGLALEAMGVYLVTYVITSLGAFGVITLMSSPYGGRDADALYEYRGLFWRRPYLTAVLTVMMLSLAGIPLTAGFIGKFYIIATGVESHLWWLVGALVIGSAIGVYYYLRVMVTLYLVEPNLRRHDAPLKWEQRTGGVMLLAIAILAFVLGVYPQPLLEMVQQAGLQLIG”, the protein production entry was “failed”.

As to “MEGCVSNIMICNLAYSGKLDELKERILADKSLATRTDQDSRTALHWACSAGHTEIVEFLLQLGVPVNDKDDAGWSPLHIAASAGRDEIVKALLVKGAHVNAVNQNGCTPLHYAASKNRHEIAVMLLEGGANPDAKDHYDATAMHRAAAKGNLKMVHILLFYKASTNIQDTEGNTPLHLACDEERVEEAKFLVTQGASIYIENKEEKTPLQVAKGGLGLILKRLAEGEEASM”, the protein production result is recorded as “not failed”.

For “MEGDVYSGFGERYQMDGKLLQNFQKSFVQVQDILDQNRLLINEINQNHESKQADHLGRNVGLIRELNNNIRTVASLYGDLSHSFARSVDASSEGESTGTLKSDGKANNQKRFRSG”, the protein production result is listed as “failed”.

On to “MEGFVLAGTSSGVGKTVATLATLTALEDAGYQPQPAKAGPDFIDPSHHEALVDTPSRTLDPWLAGEDGMRRTYWRGTGDICVVEGVMGLYDGTKTSTAAVAEGLDLPVVLVVDAKAGMESVAATALGFAQYADRIGVDIEVAGILAQRAHGGRHADGIRDALPEDLTYFGRIPPMSDLEIPDRHLGLHMGSEAGLDRDALSTAAETIDIERLVETARAPPEVATTERNTGDSPADRRVAVAQDSAFCFIYPSVLERLRSEASVEPFSPVAGDSVPDADAIYLPGGYPELHGESLETGGTLDEIAVRAADGVPVYGECGGLMALSESLTTTDGDTYEMAGVLPADIEMQDRYQALDHVELEARADTVAATSGAHRRGHEFHYSAATLGSDASFAFDMVRGDGIDGEHDGLTEYSTIGTYCHCHGESGAFDRLLAVPSKDILEHHHHHH”, for which the protein production entry was “failed”.

“MEGGYKLNITKAIVVAIYIIVGAALGVIIIPEVVTDLGIHHHAVITNYYVDGFIGIIIFFIIFGLFINKVTYAFKQFEQLIMRRSAVEILFATIGLIIGLFISVMVSFILEMIGNSILNHFVPMIITIILCYLGFQFGLKKRDEMLMFLPENMARSMSNNIRRATPKIVDTSAIIDGRILDIIRCGFIDGDILIPQGVINELQVIADAKDSVKREKGQRGLDILNQLYDLDYPTRVIHPTQSHSDIDTLLIKLAQQYHAHVITTDFNLNKVCHVQGITALNVNDLSEAIKPNVHQGDQLSILLTKIGKEPGQGVGYLDDGTMVVVDNAKSYIGQQVNLEVVSLLQTSSGRIVFAKFVD”: the protein production entry was “failed”.

“MEGSSSTIARKTWELENSILTVDSPDSTSDNIFYYDDTSQTRFQQEKPWENDPHYFKRVKISALALLKMVVHARSGGTIEIMGLMQGKTDGDTIIVMDAFALPVEGTETRVNAQDDAYEYMVEYSQTNKLAGRLENVVGWYHSHPGYGCWLSGIDVSTQRLNQQHQEPFLAVVIDPTRTVSAGKVEIGAFRTYSKGYKPPDEPVSEYQTIPLNKIEDFGVHCKQYYSLDVTYFKSSLDSHLLDLLWNKYWVNTLSSSPLLGNGDYVAGQISDLAEKLEQAESHLVQSRFGGVVPSSLHKKKEDESQLTKITRDSAKITVEQVHGLMSQVIKDELFNSMRQSNNKSPTDSSDPDPMITY”: the protein production result is on record as “failed”.

As for “MEGWDPNTKSTLTRIPLLTTKAGPRDGAAWTQRLKEEYKSLIAYTQMNKSNDNDWFRISASNPEGTRWTGKCWYVHNLLKYEFDLQFDIPITYPATAPELELPEIDGKTQKMYRGGKICLTVHFKPLWAKNCPRFGIAHALCLGLAPWLAAEIPILVDSGAIKHKDDAATSAES”, the protein production result is listed as “failed”.

Take “MEHEYQRAVTRVCVQTALLLLQHGAESTVVVQMAQRLGVALGVESVECALTANAVVLTTLSDNHCITTARKNTDKGINMQMVTDVQRIVIAVEHHLYELEIAQRKLDQLKPLKYNRWLVVFMIGLSCAAFAHLSSGDWIICGITIFMLKLLYDMLFAAIPAVGFALVFNVPPKALKYCAILAALGHVTRTLLLHINMPIVFATFFATCVIGFLGVHLSHRYLAHPKAFTVAAIIPMIPGVHAYKAMISMVQIHHFGFSDALFEQMISSFINTSFILGAIVFGLALPGLLFYRQKPVV”: the protein production result is listed as “failed”.

Turning to “MEHGTESFWTDIKRYEDILAKDPGSYCFAPLSELYRKVGLLDDAIMTARTGIGQHPEYVGGYMALGRACFEKGERTESRAALEKVVRVTPDNLLAQKLLSQIYVDAGESDLARRCLEIILSLSPGDLESKLMLDAMCRQPRENADRADDLFNEMGAAAAIDLEDESLLEEIEIIEELVDEVVDEEDLAAFTAHAPPPPLAEESFADVLLDEEPVANADVPSPRDVLSTGTVADLYIAQGFPKKALAIYRDLLDADPLNEDIRNRMVDLKKRIDEDEARARESVLAEAVSATDTTAQIQGDLTADREAFKEEAASGFAVESAHEVDIPLEVAVSAESSLNVAEEKEASAAHVVSALEGWLDSIRRIRQCRSVLH”, the protein production entry was “failed”.

As for “MEHSGTSEVTGADTAGPDPQLAVTMGFTGFGKKARTFDLEAMFEQTRRTAVERSRKTLEAREKEEEMNREKELRKQIEDMEPAPSSSSAARERSQSSCRDTSSSDSESDDSSDSSDDELIGPPLPPKMVGESVTTVDEGTLGPLPPPLCEEGEDDDDDELDDEGEEDNPVQRIPDSHEITLRHGTKTVSALGLDPSGARLVTGGYDYDVKFWDFAGMDASFKAFRSLQPCECHQIKSLQYSNTGDMILVVSGSSQAKVIDRDGFEVMECIKGDQYIVDMANTKGHTAMLHTGSWHPKIKGEFMTCSNDATVRLWEVENPKKQKSVFKPRTMQGKKVIPTTCTYSRDGNLVAAACQNGSIQIWDRNLTVHPKFHYKQAHDPGTDTSCVAFSYDGNVLASRGGDDTLKLWDVRQFNKPLFSASDLPTLFPMTDCCFSPDDKLIVTGTSVQRGCGSGKLVFLERRTFQRVYEIHITDASVVRCLWHPKLNQIMVGTGNGLAKVYYDPNKSQRGAKLCVVKTQRKAKQAETLTQDYIITPHALPMFREPRQRSTRKQLEKDRLDPLKSHKPEPPVAGPGRGGRVGTHGGTLSSYIVKNIALDKTDDSNPREAILRHAKAAEDNPYWVSPAYSKTQPKTMFAQVESDDEESKNEPEWKKRKI”, the protein production entry is “failed”.

Regarding “MEHWNKTFCLEVKGDYACFTRPEMKVERVSYDVITPSAARGIFEAIFWKPAIRWRIRKIEVLNPIKWISVRRNEVGQTASERSDGIFIETARQQRAGLFLRDVAYRLHAELEFVPPSERPDAKRPVPESLQDGRETSELRKDENPGKYYAIFERRARKGQCFNQPYLGCREFSCEFRLVDDLANEPPPISETRNLGFMLYDLDFQKNLKEPPPAFFPACLEKGVIKVPDWESEEVRK”, the protein production result is listed as “failed”.

Consider “MEIASQEDHDMPIPLNTTFGGGGSHGHMIHHHDHHAANSAPPTHNNNNTTQPPPMPLHGNGHGNNYDHHHHQDPHHVGYNAIIKKPMIKYKECLKNHAAAMGGNATDGCGEFMPSGEDGSIEALTCSACNCHRNFHRKEVEGELAATAMSPYHQHPPHRKLMLNHQKIRSAMPHQMIMPIGVSNYRYMHNNSESEDFMEEDGVTTASRSLPNLPYNQKKRFRTKFTPEQKEKMLSFAEKVGWKIQRQEDCVVQRFCEEIGVKRRVLKVWMHNNKIHFSKKNNINLEDNDNEKINNLNNVDLSGNNDMTKIVP”, for which the protein production entry is recorded as “failed”.

Take “MEIFGKTFREGRFVLKEKNFTVEFAVEKIHLGWKISGRVKGSPGRLEVLRTKAPEKVLVNNWQSWGPCRVVDAFSFKPPEIDPNWRYTASVVPDVLERNLQSDYFVAEEGKVYGFLSSKIAHPFFAVEDGELVAYLEYFDVEFDDFVPLEPLVVLEDPNTPLLLEKYAELVGMENNARVPKHTPTGWCSWYHYFLDLTWEETLKNLKLAKNFPFEVFQIDDAYEKDIGDWLVTRGDFPSVEEMAKVIAENGFIPGIWTAPFSVSETSDVFNEHPDWVVKENGEPKMAYRNWNKKIYALDLSKDEVLNWLFDLFSSLRKMGYRYFKIDFLFAGAVPGERKKNITPIQAFRKGIETIRKAVGEDSFILGCGSPLLPAVGCVDGMRIGPDTAPFWGEHIEDNGAPAARWALRNAITRYFMHDRFWLNDPDCLILREEKTDLTQKEKELYSYTCGVLDNMIIESDDLSLVRDHGKKVLKETLELLGGRPRVQNIMSEDLRYEIVSSGTLSGNVKIVVDLNSREYHLEKEGKSSLKKRVVKREDGRNFYFYEEGERE”: the protein production entry is “not failed”.

“MEIFKPDYLMIDSMIFFPTLILSFLIKRNYVKLLKSIGIVSPIYLFWDFLATWRNSWTFNPKYVAGIYVIDLPIEEVMFFLVTPFATLLIFDFVMGKVRDKEVKWVPKVVCVAIPLLLLTLPFVYNYSYTFIDLVYLIMSLIVSLLIGRNLLASRNFWIFMGLSYIPFLVFDYFLTSDPVVIYGSHSIVGIRFITIPIEDFIYSFSMITFYTVFYIRGNSLWMKQK”: the protein production result is “failed”.

With “MEIHFEKVTSDNRKAVENLQVFAEQQAFIESMAENLKESDQFPEWESAGIYDGNQLIGYAMYGRWQDGRVWLDRFLIDQRFQGQGYGKAACRLLMLKLIEKYQTNKLYLSVYDTNSSAIRLYQQLGFVFNGELDTNGERVMEWTHQNK”, the protein production result is “not failed”.

Consider “MEIIHLSEIDSTNDYAKELAKEGKRNFIVLADKQNNGKGRWGRVWYSDEGGLYFSMVLDSKLYNPKVINLLVPICIIEVLKNYVDKELGLKFPNDIMVKVNDNYKKLGGILTELTDDYMIIGIGINVNNQIRNEIREIAISLKEITGKELDKVEILSNFLKTFESYLEKLKNKEIDDYEILKKYKKYSITIGKQVKILLSNNEIITGKVYDIDFDGIVLGTEKGIERIPSGICIHVR”, for which the protein production result is “not failed”.

“MEIIIYIFVSIAIISLQAITPFVIRKSECFGVNVGERANRNAELTQLKKQYVGQVILWTSFVAIIGIALIQGFHSSENTQAGIFIASMFSQLIVSFIIYYRFHHTTLQWKRDKIEAGEISTNSIIMVDTSFHRRKMVISYTWFIVPLLIFIITLAITVVFYSTAPVDFPIHFDMSGTVTDTVAKSPRVVLLLPMMQLGMIALFIFINFVIARSKQTVENENPTDSLKRNMLFRQISSKAMLIMCTIMVIDFLIMQVVTLLALPAEWMMVTMIISVVLILFGTVLLAVKVGQGGSRLKFADQPDGVNKPIRDDDSFWKAGVIYFNRNDPALFVEKRFGIGWTINTARPVAWLSFVIIIAVIILISILF”: the protein production result is “failed”.
